Usually Kd stands for the concentration at which binding is half-saturated. Low values mean higher affinity, high ones lower affinity.

Here are results for 3 substances from article PMC5460766.

Holding throughout (assay): ITC
(ITC needs no label: the signal is the heat of the interaction.)

Experiment [1] deals with NDD(MlnE)+MlnKR6 (Bacillus amyloliquefaciens FZB42) (UniProt A7Z474).
Experiment [2] deals with NDD(MlnD)+MlnKR4 (Bacillus amyloliquefaciens FZB42) (UniProt A7Z473).
For experiment [3], the target named is NDD(MlnG)+MlnKR9 (Bacillus amyloliquefaciens FZB42) (UniProt A7Z476).

As to “MlnKS6+CDD(MlnD) (from UniProt A7Z473 1-2902) (domain or fragment)”, in experiment [1], the Kd was determined as 800 nM. “MlnDH4+CDD(MlnC) (from UniProt A7Z472 1-1590) (domain or fragment)” registered a Kd in experiment [2] of 1800 nM. “MlnDH9+CDD(MlnF) (from UniProt A7Z475 1-1903) (domain or fragment)” showed a Kd in experiment [3] of 9 µM.
